Experimental data as given in publication PMC11865472 (2025).
Numbering of substitutions follows the chain as printed. In names and notes the source's numbering stands.

T1: biotinylated TGF-β2 homodimer (human, biotin (EZ-Link Amine-PEG3-Biotin coupled with EDC and sulfo-NHS))
T1 chain: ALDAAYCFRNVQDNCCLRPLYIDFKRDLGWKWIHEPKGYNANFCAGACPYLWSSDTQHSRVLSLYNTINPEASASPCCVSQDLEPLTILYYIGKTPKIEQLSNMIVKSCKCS

T2: inhibin A (InhA), mature heterodimer, unlabelled (UniProt P05111 233-366; P08476 311-426)
T2 chain 1: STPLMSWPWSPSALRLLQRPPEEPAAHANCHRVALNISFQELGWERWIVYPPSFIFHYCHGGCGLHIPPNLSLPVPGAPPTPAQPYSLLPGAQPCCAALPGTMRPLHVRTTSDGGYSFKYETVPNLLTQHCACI
T2 chain 2: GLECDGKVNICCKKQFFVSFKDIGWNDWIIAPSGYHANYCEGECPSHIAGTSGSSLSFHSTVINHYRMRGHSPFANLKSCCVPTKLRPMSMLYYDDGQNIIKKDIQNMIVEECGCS

B1: TGF-β2 on the chip with ratBGO-Y248A bound (1 µM ratBGO-Y248A in the buffer) (complex)
chain 1: T1 chain
chain 2: GSPCELSPINASHPVQALMESFTVLSGCASRGTTGLPREVHVLNLRSTDQGPGQRQREVTLHLNPIASVHTHHKPIVFLLNSPQPLVWHLKTERLAAGVPRLFLVSEGSVVQFPSGNFSLTAETEERNFPQENEHLLRWAQKEYGAVTSFTELKIARNIYIKVGEDQVFPPTCNIGKNFLSLNYLAEYLQPKAAEGCVLPSQPHEKEVHIIELITPSSNPASAFQVDIIVDIRPAQEDPEVVKNLVLILKCKKSVNWVIKSFDVKGNLKVIAPNSIGFGKESERSMTMTKLVRDDIPSTQENLMKWALDNGYRPVTSYTMAPVANRFHLRLENHHHHHH
B2: TGF-β2 on the chip with ratBGO-zfBL bound (1 µM ratBGO-zfBL in the buffer) (complex)
chain 1: T1 chain
chain 2: GSPCELSPINASHPVQALMESFTVLSGCASRGTTGLPREVHVLNLRSTDQGPGQRQREVTLHLNPIASVHTHHKPIVFLLNSPQPLVWHLKTERLAAGVPRLFLVSEGSVVQFPSGNFSLTAETEERNFPQENEHLLRWAQKEYGAVTSFTELKIARNIYIKVGEDQVFPPTCNIGKNFLSLNYLAEYLQPKAAEGCVLPSQPHEKEVHIIELITPNSSSAFQVDIIVDIRPAQEDPEVVKNLVLILKCKKSVNWVIKSFDVKGNLKVIAPNSIGFGKESERSMTMTKLVRDDIPSTQENLMKWALDNGYRPVTSYTMAPVANRFHLRLENHHHHHH
B3: TGF-β2 on the chip with ratBGO bound (1 µM ratBGO in the buffer) (complex)
chain 1: T1 chain
chain 2: B1 chain 2 with A221Y
B4: TGF-β2 on the chip with zfBGO bound (1 µM zfBGO in the buffer) (complex)
chain 1: T1 chain
chain 2: GSPCELLPVGVGHPVQAMLKSFTALSGCASRGTTSHPQEVHIINLRKGSAQGAREKTAEVALHLRPIQSLHVHQKPLVFILNSPQPILWKVRTEKLAPGVKRIFHVVEGSEVHFEVGNFSKSGEVKVETLPHGNEHLLNWAHHRYTAVTSFSELRMAHDIYIKVGEDPVFSETCKIDNKFLSLNYLASYIEPQPSTGCVLSGPDHEQEVHIIELQAPNSSSAFQVDVIVDLRPLDGDIPLHRDVVLLLKGEKSVNWVIKAHKVMGKLEIMTSDTVSLSEDTERLMQVSKTVKQKLPAGSQALIQWAEENGFNPVTSYTNTPVANHFNLRLREHHHHHH
B5: TGF-β2 homodimer (growth factor domain), unlabelled (ligand)
chain: T1 chain
B6: rat betaglycan ZP-C domain (BG_(ZP-C)), mammalian-expressed (domain or fragment)
chain: GNATFNMELYNTDLFLVPSPGVFSVAENEHVYVEVSVTKADQDLGFAIQTCFLSPYSNPDRMSDYTIIENICPKDDSVKFYSSKRVHFPIPHAEVDKKRFSFLFKSVFNTSLLFLHCELTLCSRKKGSLKLPRCVTPDDACTSLDATMIWTMMQNKKTFTKPLAVVLQ
B7: BGZP-C E130A (protein)
chain: B6 chain with E118A
B8: BGZP-C S155A (protein)
chain: B6 chain with S143A

Assays:
[1] = molecular target: T3, TGF-β receptor type II (TGFBR2), extracellular domain (UniProt P37173 23-166); assay: SPR; 1 µM ratBGO-Y248A
[2] = molecular target: T3, TGF-β receptor type II (TGFBR2), …; assay: SPR; 1 µM ratBGO-zfBL
[3] = molecular target: T3, TGF-β receptor type II (TGFBR2), …; assay: SPR; 1 µM ratBGO
[4] = molecular target: T3, TGF-β receptor type II (TGFBR2), …; assay: SPR; 1 µM zfBGO
[5] = molecular target: T3, TGF-β receptor type II (TGFBR2), …; assay: SPR
[6] = molecular target: T1, biotinylated TGF-β2 homodimer; assay: SPR
[7] = molecular target: T2, inhibin A (InhA), mature heterodimer, …; assay: SPR
[8] = molecular target: B5; assay: SPR

B1
Kd [1]: > 10 µM

B2
Kd [2]: > 10 µM

B3
Kd [3]: 1780 nM

B4
Kd [4]: > 10 µM

B5
Kd [5]: > 10 µM

B6
Kd [6]: 159 nM
Kd [7]: 1070 nM
Kd [8]: 127 nM

B7
Kd [6]: 1350 nM

B8
Kd [6]: 282 nM
